# Laboratory results published in IntAct's records for PubMed 35512704.
# B1: Mothers against decapentaplegic homolog 4 (Homo sapiens), Q13485 (parent)
# chain: MDNMSITNTPTSNDACLSIVHSLMCHRQGGESETFAKRAIESLVKKLKEKKDELDSLITAITTNGAHPSKCVTIQRTLDGRLQVAGRKGFPHVIYARLWRWPDLHKNELKHVKYCQYAFDLKCDSVCVNPYHYERVVSPGIDLSGLTLQSNAPSSMMVKDEYVHDFEGQPSLSTEGHSIQTIQHPPSNRASTETYSTPALLAPSESNATSTANFPNIPVASTSQPASILGGSHSEGLLQIASGPQPGQQQNGFTGQPATYHHNSTTTWTGSRTAPYTPNLPHHQNGHLQHHPPMPPHPGHYWPVHNELAFQPPISNHPAPEYWCSIAYFEMDVQVGETFKVPSSCPIVTVDGYVDPSGGDRFCLGQLSNVHRTEAIERARLHIGKGVQLECKGEGDVWVRCLSDHAVFVQSYYLDREAGRAPGDAVHKIYPSAYIKVFDLRQCHRQMQQQAATAQAAAAAQAAAVAGNIPGPGSVGGIAPAISLSAAAGIGVDDLRRLCILRMSFVKGWGPDYPRQSIKETPCWIEIHLHRALQLLDEVLHTMPIADPQPLD
# partner: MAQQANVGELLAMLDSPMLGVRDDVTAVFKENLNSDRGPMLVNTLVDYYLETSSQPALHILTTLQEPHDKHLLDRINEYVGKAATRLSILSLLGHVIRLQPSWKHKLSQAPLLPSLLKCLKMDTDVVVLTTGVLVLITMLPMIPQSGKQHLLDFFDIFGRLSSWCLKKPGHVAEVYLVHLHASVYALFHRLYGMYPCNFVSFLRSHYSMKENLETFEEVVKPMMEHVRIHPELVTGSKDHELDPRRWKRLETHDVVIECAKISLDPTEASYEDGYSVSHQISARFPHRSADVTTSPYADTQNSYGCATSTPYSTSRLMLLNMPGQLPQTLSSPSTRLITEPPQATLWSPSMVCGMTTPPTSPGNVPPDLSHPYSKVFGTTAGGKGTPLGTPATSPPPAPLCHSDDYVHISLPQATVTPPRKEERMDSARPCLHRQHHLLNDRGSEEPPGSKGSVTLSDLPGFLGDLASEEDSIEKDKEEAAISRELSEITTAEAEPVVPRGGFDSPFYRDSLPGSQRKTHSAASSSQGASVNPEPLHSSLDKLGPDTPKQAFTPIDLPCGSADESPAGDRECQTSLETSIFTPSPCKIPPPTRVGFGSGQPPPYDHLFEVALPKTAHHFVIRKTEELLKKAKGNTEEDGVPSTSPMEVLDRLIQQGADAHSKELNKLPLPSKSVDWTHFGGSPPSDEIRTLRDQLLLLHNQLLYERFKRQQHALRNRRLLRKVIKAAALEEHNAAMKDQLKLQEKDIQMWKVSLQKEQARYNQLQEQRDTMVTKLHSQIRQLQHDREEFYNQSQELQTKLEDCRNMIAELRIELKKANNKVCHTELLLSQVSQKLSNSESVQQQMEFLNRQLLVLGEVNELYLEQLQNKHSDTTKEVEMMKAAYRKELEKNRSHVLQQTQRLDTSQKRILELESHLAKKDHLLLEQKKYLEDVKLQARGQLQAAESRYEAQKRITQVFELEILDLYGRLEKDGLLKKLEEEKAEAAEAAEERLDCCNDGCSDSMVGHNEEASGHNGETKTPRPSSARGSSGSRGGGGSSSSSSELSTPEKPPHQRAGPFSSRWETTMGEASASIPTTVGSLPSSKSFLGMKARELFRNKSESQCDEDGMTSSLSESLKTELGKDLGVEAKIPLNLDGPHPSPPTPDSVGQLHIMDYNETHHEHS
# B2: Mothers against decapentaplegic homolog 4 (Homo sapiens), Q13485 (parent)
# chain: B1 chain
# partner: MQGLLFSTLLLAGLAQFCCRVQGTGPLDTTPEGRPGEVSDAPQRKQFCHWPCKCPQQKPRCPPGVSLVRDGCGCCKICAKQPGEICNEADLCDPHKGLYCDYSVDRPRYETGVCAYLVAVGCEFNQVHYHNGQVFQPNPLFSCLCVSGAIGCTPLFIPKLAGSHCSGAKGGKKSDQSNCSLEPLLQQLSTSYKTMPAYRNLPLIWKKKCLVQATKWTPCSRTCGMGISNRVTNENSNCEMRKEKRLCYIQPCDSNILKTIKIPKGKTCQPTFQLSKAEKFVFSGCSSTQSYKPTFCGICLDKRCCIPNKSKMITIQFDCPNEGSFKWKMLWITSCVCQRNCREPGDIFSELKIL
# B3: Mothers against decapentaplegic homolog 4 (Homo sapiens), Q13485 (parent)
# chain: B1 chain
# partner: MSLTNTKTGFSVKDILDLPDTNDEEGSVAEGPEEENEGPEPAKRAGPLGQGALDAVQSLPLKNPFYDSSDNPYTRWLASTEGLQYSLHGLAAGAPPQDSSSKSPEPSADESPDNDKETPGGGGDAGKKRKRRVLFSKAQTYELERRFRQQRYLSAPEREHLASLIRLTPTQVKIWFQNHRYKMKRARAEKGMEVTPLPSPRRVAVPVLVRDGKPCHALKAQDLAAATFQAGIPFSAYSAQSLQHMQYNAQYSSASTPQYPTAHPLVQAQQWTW
# B4: Mothers against decapentaplegic homolog 4 (Homo sapiens), Q13485 (parent)
# chain: B1 chain
# partner: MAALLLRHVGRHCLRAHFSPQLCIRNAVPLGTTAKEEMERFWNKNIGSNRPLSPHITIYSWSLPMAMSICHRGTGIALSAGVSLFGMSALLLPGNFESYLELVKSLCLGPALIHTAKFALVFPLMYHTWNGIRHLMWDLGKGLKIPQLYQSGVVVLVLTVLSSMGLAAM
# B5: Mothers against decapentaplegic homolog 4 (Homo sapiens), Q13485 (parent)
# chain: B1 chain
# partner: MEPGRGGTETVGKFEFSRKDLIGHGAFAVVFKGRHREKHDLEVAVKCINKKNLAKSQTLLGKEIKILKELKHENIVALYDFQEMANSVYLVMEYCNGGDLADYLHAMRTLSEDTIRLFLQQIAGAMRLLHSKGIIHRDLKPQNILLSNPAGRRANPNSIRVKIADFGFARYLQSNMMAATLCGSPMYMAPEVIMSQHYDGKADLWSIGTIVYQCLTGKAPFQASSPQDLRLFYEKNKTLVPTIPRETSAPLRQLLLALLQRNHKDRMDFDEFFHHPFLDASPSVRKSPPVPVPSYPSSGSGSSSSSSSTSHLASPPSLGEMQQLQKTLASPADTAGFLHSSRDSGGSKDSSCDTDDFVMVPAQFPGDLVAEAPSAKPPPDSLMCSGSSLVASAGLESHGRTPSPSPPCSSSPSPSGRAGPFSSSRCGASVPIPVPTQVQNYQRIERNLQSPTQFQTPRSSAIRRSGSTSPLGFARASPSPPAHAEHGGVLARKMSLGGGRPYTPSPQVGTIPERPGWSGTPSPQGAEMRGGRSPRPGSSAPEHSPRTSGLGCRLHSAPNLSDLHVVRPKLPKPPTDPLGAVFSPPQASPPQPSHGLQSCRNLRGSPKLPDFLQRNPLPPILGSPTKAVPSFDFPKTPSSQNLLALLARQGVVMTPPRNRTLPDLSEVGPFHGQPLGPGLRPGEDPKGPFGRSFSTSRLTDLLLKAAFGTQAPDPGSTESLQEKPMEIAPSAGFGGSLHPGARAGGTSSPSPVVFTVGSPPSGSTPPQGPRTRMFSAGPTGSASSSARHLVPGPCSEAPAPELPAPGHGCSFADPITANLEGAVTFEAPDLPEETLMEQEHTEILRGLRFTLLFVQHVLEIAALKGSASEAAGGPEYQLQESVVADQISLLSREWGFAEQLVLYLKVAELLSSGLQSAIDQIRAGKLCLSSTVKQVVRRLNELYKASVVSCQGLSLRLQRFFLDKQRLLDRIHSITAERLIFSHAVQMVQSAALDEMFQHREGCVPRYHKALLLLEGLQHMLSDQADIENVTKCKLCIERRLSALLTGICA
# B6: Mothers against decapentaplegic homolog 4 (Homo sapiens), Q13485 (parent)
# chain: B1 chain
# partner: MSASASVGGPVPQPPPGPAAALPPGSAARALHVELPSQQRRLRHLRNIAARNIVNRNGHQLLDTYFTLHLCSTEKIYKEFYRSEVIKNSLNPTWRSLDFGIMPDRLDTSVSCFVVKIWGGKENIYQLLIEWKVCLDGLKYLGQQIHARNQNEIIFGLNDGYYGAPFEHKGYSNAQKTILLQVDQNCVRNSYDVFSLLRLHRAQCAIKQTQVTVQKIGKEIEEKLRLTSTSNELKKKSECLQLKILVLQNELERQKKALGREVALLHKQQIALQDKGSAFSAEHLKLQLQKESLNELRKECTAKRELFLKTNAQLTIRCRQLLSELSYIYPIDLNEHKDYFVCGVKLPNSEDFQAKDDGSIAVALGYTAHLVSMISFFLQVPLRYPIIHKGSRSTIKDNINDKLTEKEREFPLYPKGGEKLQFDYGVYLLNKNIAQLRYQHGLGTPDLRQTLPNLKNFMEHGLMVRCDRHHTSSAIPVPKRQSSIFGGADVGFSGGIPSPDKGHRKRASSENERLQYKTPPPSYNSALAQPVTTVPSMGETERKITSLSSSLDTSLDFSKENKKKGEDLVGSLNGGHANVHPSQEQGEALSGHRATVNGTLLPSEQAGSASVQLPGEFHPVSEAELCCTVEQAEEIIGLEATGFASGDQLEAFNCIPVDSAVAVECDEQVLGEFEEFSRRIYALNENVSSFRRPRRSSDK
# B7: Mothers against decapentaplegic homolog 4 (Homo sapiens), Q13485 (parent)
# chain: B1 chain
# partner: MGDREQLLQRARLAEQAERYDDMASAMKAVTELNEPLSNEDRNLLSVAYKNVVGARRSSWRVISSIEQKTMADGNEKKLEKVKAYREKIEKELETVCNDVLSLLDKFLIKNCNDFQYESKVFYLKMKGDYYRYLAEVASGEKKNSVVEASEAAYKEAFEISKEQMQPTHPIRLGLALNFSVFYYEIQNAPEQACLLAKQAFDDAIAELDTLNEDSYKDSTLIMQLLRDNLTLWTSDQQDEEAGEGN
# Variants of: B1
# Settings: with tsc1_human TSC1, Q92574
row,Variant,effect of a mutation on the interaction
1,R361H,with no effect

# Variants of: B1
# Settings: with tsc1_human TSC1, Q92574
# Remark: another data set of the same source
row,Variant,effect of a mutation on the interaction
1,G386D,with no effect

# Variants of: B1
# Settings: with tsc1_human TSC1, Q92574
# Remark: another data set of the same source
row,Variant,effect of a mutation on the interaction
1,D351H,with no effect

# Variants of: B2
# Settings: with ccn6_human CCN6, O95389
row,Variant,effect of a mutation on the interaction
1,R361C,with no effect

# Variants of: B2
# Settings: with ccn6_human CCN6, O95389
# Remark: another data set of the same source
row,Variant,effect of a mutation on the interaction
1,R361H,with no effect

# Variants of: B2
# Settings: with ccn6_human CCN6, O95389
# Remark: another data set of the same source
row,Variant,effect of a mutation on the interaction
1,G386D,with no effect

# Variants of: B2
# Settings: with ccn6_human CCN6, O95389
# Remark: another data set of the same source
row,Variant,effect of a mutation on the interaction
1,D351H,with no effect

# Variants of: B3
# Settings: with nkx22_human NKX2-2, O95096
row,Variant,effect of a mutation on the interaction
1,R361C,with no effect

# Variants of: B3
# Settings: with nkx22_human NKX2-2, O95096
# Remark: another data set of the same source
row,Variant,effect of a mutation on the interaction
1,R361H,with no effect

# Variants of: B3
# Settings: with nkx22_human NKX2-2, O95096
# Remark: another data set of the same source
row,Variant,effect of a mutation on the interaction
1,D351H,with no effect

# Variants of: B4
# Settings: with c560_human SDHC
row,Variant,effect of a mutation on the interaction
1,R361H,with no effect

# Variants of: B4
# Settings: with c560_human SDHC
# Remark: another data set of the same source
row,Variant,effect of a mutation on the interaction
1,R361C,with no effect

# Variants of: B4
# Settings: with c560_human SDHC
# Remark: another data set of the same source
row,Variant,effect of a mutation on the interaction
1,D351H,with no effect

# Variants of: B4
# Settings: with c560_human SDHC
# Remark: another data set of the same source
row,Variant,effect of a mutation on the interaction
1,G386D,with no effect

# Variants of: B5
# Settings: with ulk1_human ULK1, O75385
row,Variant,effect of a mutation on the interaction
1,G386D,with no effect

# Variants of: B5
# Settings: with ulk1_human ULK1, O75385
# Remark: another data set of the same source
row,Variant,effect of a mutation on the interaction
1,R361H,with no effect

# Variants of: B5
# Settings: with ulk1_human ULK1, O75385
# Remark: another data set of the same source
row,Variant,effect of a mutation on the interaction
1,R361C,with no effect

# Variants of: B5
# Settings: with ulk1_human ULK1, O75385
# Remark: another data set of the same source
row,Variant,effect of a mutation on the interaction
1,D351H,with no effect

# Variants of: B6
# Settings: with uvrag_human UVRAG
row,Variant,effect of a mutation on the interaction
1,R361H,with no effect

# Variants of: B6
# Settings: with uvrag_human UVRAG
# Remark: another data set of the same source
row,Variant,effect of a mutation on the interaction
1,R361C,with no effect

# Variants of: B6
# Settings: with uvrag_human UVRAG
# Remark: another data set of the same source
row,Variant,effect of a mutation on the interaction
1,D351H,with no effect

# Variants of: B6
# Settings: with uvrag_human UVRAG
# Remark: another data set of the same source
row,Variant,effect of a mutation on the interaction
1,G386D,with no effect

# Variants of: B7
# Settings: with 1433f_human YWHAH
row,Variant,effect of a mutation on the interaction
1,G386D,with no effect
